Broadly, the Kd is the concentration at which binding is half-saturated. The low end stands for tighter binding, the high end for weaker binding.

The target in test [1] is human Scribble PDZ1 domain (728-815) (human, UniProt Q14160 728-815). In words: ITC. (ITC needs no label: the signal is the heat of the interaction.)
The target in test [2] is T1, human Scribble PDZ3 domain (1005-1094) (human, UniProt Q14160 1005-1094).
T1 sequence (looked up): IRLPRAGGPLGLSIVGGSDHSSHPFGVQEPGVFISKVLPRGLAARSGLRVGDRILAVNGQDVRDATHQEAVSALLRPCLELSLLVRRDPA
In words: ITC.

Non-standard residues stand in square brackets, D forms with d. No end group written: not given here. pS = N[C@@H](COP(=O)(O)O)C(=O)O

Chain of human Scribble PDZ1 domain (728-815) (Q14160 728-815): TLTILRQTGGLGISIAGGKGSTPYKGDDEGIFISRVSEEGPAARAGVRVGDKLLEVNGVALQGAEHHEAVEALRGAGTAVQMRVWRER

B1: MCC 8-mer peptide spanning the C-terminus (PDZ-binding motif) of human MCC (peptide)
peptide: PHTNETSL
Regarding B1, the Kd in test [1] stood at 7.7 µM; in test [2] it was 5 µM.

B2: MCC_SD 8-mer peptide (Ser to Asp at position -1) (peptide)
peptide: PHTNETDL
Turning to B2, the figures for the Kd in test [1] and in test [2] were 7 µM and 3.4 µM, respectively.

B3: MCC_SE 8-mer peptide (Ser to Glu at position -1) (peptide)
peptide: PHTNETEL
Consider B3, for which the Kd in test [1] is 7.2 µM; in test [2] it was 4.5 µM.

B4: phosphorylated MCC 8-mer peptide (phospho-Ser at position -1) (peptide)
peptide: PHTNET[pS]L
As for B4, the Kd was 6.1 µM in test [1] and 3.7 µM in test [2].

Source of the values: publication doi:10.1101/501064 (bioRxiv, 2018).
